Patent US20060148715A1, “Structural requirements for STAT3 binding and recruitment to phosphotyrosine ligands” (BAYLOR COLLEGE OF MEDICINE, priority 2004, published 2006)
Non-standard residues stand in square brackets, D forms with d. No end group written: not given here. *: point of attachment. d‑Biotin‑LC = N-terminal biotin (d-Biotin-LC), O=C(CCCC[C@@H]1SC[C@@H]2NC(=O)N[C@@H]21)NCCCCCC(=O)*; pY = N[C@@H](Cc1ccc(OP(=O)(O)O)cc1)C(=O)O

How the values were obtained:
Stat3-3M+R609L = target: T1, Stat3-3M+R609L (Homo sapiens, UniProt P40763, E638L/R609L/Y640F/Y657F); assay: Phosphopeptide affinity immunoblot (peptide pull-down); format: binding
T1 construct: made in house; host or cells: Sf9 insect cells (baculovirus, pFastBac1)
Method: (§1) NeutrAvidin agarose (40 μl; Pierce) was incubated with 10 μg of biotinylated peptide in 300 μl of Buffer A (20 mM HEPES pH 7.5, 20 mM NaF, 1 mM Na3VO4, 1 mM Na4P2O7, 1 mM EDTA, 1 mM EGTA, 20% glycerol, 0.05% NP-40, 1 mM DTT, 1 μg/ml leupeptin, 1 μg/ml aprotinin, 0.5 mM phenylmethylsulfonyl fluoride, 100 mM NaCl) at 4° C. for 2 h and washed with Buffer A 3 times. The NeutrAvidin-peptide complex was then mixed with His-tagged Stat3 protein (5 μg) in 1 ml of Buffer A (without NaCl and NP-40) at 4° C. for 2 h and washed thoroughly. Bound proteins were separated and immunoblotted using Stat3 monoclonal antibody (mAb).
(§2) To test the pocket 1 component of the two models and to ensure that the peptide pull-down system was sufficiently sensitive to detect reduced binding of Stat3 containing mutations in pocket 2, either K591L or R609L was added to the 3M mutant to generate Stat3-3M+K591L and Stat3-3M+R609L.
(§3) To test the pocket 1 component of the two models and to ensure that our peptide pull-down system was sufficiently sensitive to detect reduced binding of Stat3 containing mutations in pocket 2, either K591L or R609L was added to the 3M mutant to generate Stat3-3M+K591L and Stat3-3M+R609L.

Stat3-3M+K591L = target: T2, Stat3-3M+K591L (Homo sapiens, UniProt P40763, E638L/K591L/Y640F/Y657F); assay: as above; format: binding
T2 construct: made in house; host or cells: Sf9 insect cells (baculovirus, pFastBac1)
Method: as §1, §2, §3

Stat3-4M [1] = target: T3, Stat3-4M (Homo sapiens, UniProt P40763, C687A/Q692L/S691A/Y657F); assay: as above; format: binding; settings: compared with wild type Stat3
T3 construct: made in house; host or cells: Sf9 insect cells (baculovirus, pFastBac1)
Method: as §1
NeutrAvidin agarose was incubated with the indicated biotinylated peptides (see Table 2 for exemplary sequences) or no peptide (CON) as control, washed thoroughly and mixed with identical amounts of wild type or mutant Stat3 proteins as indicated. Bound proteins were separated by SDS-PAGE and immunoblotted using Stat3 mAb. Lane ST represents purified wild type Stat3 (0.6 μg) loaded directly onto the gel as positive control.
Stat3 proteins in which mutations were introduced to alter side chains from charged or polar to non-polar within amino acid residues were predicted in each model to be critical for Stat3 binding (FIG. 1B). The recombinant Stat3 proteins were expressed in Sf9 insect cells and purified to equivalent levels using Ni-NTA resin (FIG. 1C).

Stat3-E638P [2] = target: T4, Stat3-E638P (Homo sapiens, UniProt P40763, E638P); assay: as above; format: binding
T4 construct: made in house; host or cells: Sf9 insect cells (baculovirus)
Method: as §1
In FIG. 5C, NeutrAvidin agarose was incubated with the indicated biotinylated dodecapeptides (see Table 2 for sequence) or no peptide (CON) as control, washed thoroughly and mixed with wild type Stat3 protein. Bound proteins were separated by SDS-PAGE and immunoblotted using Stat3 mAb. Lane ST represents purified wild type Stat3 (0.6 μg) loaded directly onto the gel as a positive control.
To test the contribution of the E638 amide hydrogen to binding to G-CSFR Y704 and Y744 phosphododecapeptide, Stat3-E638P was generated by site-directed mutagenesis, which eliminated the amide hydrogen donor predicted to bind with oxygen within the +3 Q side chain.

wild type Stat3 [3] = target: T5, wild type Stat3 (Homo sapiens, UniProt P40763); assay: as above; format: binding; settings: purified wild type Stat3
T5 construct: made in house; host or cells: Sf9 insect cells (baculovirus, pFastBac1)
Method: as §1
Each peptide was incubated with equal amounts of purified wild type Stat3 protein in peptide pull-down assays (FIG. 1). NeutrAvidin agarose was incubated with the indicated biotinylated peptides (see Table 2 for sequence) or no peptide (CON) as control, washed thoroughly and mixed with identical amount of wild type Stat3. Bound proteins were separated by SDS-PAGE and immunoblotted using Stat3 mAb. Lane ST represents purified wild type Stat3 (0.6 μg) loaded directly onto the gel as positive control. […] Thus, Q at the +3 position of Y1068 phosphopeptide is required for Stat3 binding and appears to be as important for Stat3 binding as phosphorylation on tyrosine. […]

Stat3-6M [4] = target: T6, Stat3-6M (Homo sapiens, UniProt P40763, C687A/E638L/Q692L/S691A/Y640F/Y657F); assay: Mirror resonance affinity assay (resonant mirror biosensor); format: binding
T6 construct: made in house; host or cells: Sf9 insect cells (baculovirus, pFastBac1)
Method: (§4) Kinetics experiments were performed using an lasys Auto+ resonant mirror biosensor (Affinity Sensor, Paramus, N.J.) (see Sadowski et. al, 1986). Briefly, two-welled cuvettes coated on the bottom of each well with biotin were purchased from Affinity Sensor and prepared for immobilization of biotinylated peptides by coating each surface with 0.04 mg/ml NeutrAvidin (Pierce) and washing with PBS-T (20 mM Na Phosphate, 0.05% Tween-20). Biotinylated peptide (5 μg) was added into each well—experimental peptide to one well and control peptide to the other—and change in arc seconds monitored simultaneously in both wells using the biosensor until stable followed by washing with PBS-T. Real-time binding of Stat3 was conducted at 25° C. at a stir speed of 70 for 10 min starting at the lowest concentration of Stat3. The wells were washed out with three changes of 60 μl PBS-T, and dissociation was allowed to proceed for 5 min. Each well bottom was regenerated by washing with […] of 100 mM formic acid for 2 min and equilibrated with PBS-T for the next round of association assay. Data were collected automatically and analyzed with the FASTplot and GraFit software (see Sheinerman et. al, 2003).
(§5) Mirror resonance affinity assay. Two cells of a biotin-coated cuvette pretreated with saturating amounts of NeutrAvidin. One well of the cuvette was pretreated with biotinylated phosphopeptide based on Y1068 (pY1068, left panel), while the other well was pretreated with biotinylated non-phosphorylated peptide Y1068 (Y1068, right panel) as a control for non-specific binding. Wild type or mutated Stat3 protein was added in the concentrations indicated to each of the two cells and mirror resonance measurements recorded continuously for 10 min as shown.

Stat3-3M [5] = target: T7, Stat3-3M (Homo sapiens, UniProt P40763, E638L/Y640F/Y657F); assay: as above; format: binding
T7 construct: made in house; host or cells: Sf9 insect cells (baculovirus, pFastBac1)
Method: as §4, §5

Stat3-4M [6] = target: T3, Stat3-4M; assay: as above; format: binding
Method: as §4, §5

wild type Stat3 [7] = target: T5, wild type Stat3; assay: as above; format: binding
Method: as §4, §5
To obtain quantitative kinetic information about the binding of Stat3 to G-CSFR Y704 and Y744 including association rates (kass), disassociation rates (kdiss) and dissociation equilibrium constants (KD), real-time affinity measurements using a mirror resonance biosensor were performed. The biosensor exploits surface plasmon resonance to measure in real time the alteration in the angle of a laser light reflected from a surface upon which binding events are occurring. Biotinylated peptides were immobilized onto the bottom surface of cuvette wells pre-coated with NeutrAvidin. The interaction of peptides with Stat3 added at different concentrations was measured in real time as altered deflection of a laser light striking the bottom surface of the cuvette; the alterations in the deflection angle measured in arc seconds was analyzed with GraFit software. […] The slightly lower KD for Y704 vs. Y744 is attributable to a faster association rate of Stat3 binding to this phosphododecapeptide.

[8] = target: T8, wild type Stat3 (recombinant human Stat3alpha with N-terminal 6-histidine tag) (human, UniProt P40763 1-770); assay: peptide pull-down: biotinylated peptide on NeutrAvidin agarose, purified His-tagged Stat3 protein added, bound protein immunoblotted with Stat3 mAb
T8 construct: Expressed in Sf9 cells and purified on Ni-NTA for peptide assays; expressed from pcDNA3.1 in 293T cells for the G-CSFR co-immunoprecipitation; also called WT; purified Stat3

Stat3-4M [9] = target: Stat3-4M (human, UniProt P40763 1-770, limits assumed); assay: as above
Stat3-6M [10] = target: Stat3-6M (human, UniProt P40763 1-770, limits assumed); assay: as above
Stat3-3M [11] = target: Stat3-3M (human, UniProt P40763 1-770, limits assumed); assay: as above
Stat3-E638P [12] = target: T9, Stat3-E638P (human, UniProt P40763 1-770); assay: as above
T9 construct: Produced in Sf9 cells; CD spectrum essentially identical to wild type
T9 sequence (P40763 other isoform, or with tags, fused parts or gaps E638P E638P limits assumed): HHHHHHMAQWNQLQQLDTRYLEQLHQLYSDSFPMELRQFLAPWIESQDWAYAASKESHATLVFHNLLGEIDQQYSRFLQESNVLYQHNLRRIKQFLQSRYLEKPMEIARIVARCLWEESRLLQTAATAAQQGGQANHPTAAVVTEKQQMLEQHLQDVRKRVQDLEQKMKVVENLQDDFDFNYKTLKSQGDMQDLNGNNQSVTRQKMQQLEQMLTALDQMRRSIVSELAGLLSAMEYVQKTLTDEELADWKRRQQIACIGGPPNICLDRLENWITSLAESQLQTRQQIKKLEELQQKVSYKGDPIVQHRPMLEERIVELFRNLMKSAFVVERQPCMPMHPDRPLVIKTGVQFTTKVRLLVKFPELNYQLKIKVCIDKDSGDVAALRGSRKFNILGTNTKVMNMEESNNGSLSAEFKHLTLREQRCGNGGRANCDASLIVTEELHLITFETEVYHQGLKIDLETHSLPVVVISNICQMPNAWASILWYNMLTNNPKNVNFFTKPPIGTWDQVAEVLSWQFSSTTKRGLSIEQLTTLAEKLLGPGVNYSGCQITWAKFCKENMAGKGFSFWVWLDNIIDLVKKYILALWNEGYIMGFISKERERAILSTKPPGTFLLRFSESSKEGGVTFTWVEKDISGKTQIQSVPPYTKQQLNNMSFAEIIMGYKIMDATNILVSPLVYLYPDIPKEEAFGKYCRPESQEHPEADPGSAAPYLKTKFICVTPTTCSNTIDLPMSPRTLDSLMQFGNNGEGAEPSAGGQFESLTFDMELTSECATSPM

T3 sequence (P40763 whole entry Y657F/C687A/S691A/Q692L): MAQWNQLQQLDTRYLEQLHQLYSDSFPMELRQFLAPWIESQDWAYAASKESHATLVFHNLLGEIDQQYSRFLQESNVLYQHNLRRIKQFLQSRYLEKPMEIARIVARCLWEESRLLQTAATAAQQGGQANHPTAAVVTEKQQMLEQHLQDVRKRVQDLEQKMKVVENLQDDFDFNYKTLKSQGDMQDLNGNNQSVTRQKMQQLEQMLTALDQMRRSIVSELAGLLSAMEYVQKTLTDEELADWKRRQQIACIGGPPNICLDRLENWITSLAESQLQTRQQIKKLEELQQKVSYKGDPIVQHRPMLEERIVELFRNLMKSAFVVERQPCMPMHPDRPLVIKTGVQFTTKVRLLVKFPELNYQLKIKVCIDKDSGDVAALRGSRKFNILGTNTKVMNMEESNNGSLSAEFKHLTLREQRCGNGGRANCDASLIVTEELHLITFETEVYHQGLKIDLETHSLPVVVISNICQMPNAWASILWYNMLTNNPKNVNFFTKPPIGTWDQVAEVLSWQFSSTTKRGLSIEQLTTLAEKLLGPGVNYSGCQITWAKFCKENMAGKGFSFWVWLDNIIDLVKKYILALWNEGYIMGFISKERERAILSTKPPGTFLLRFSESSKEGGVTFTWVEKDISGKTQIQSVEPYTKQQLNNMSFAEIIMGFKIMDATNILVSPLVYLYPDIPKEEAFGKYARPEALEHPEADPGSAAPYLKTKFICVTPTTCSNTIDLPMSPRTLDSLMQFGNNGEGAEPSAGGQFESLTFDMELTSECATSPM
T5 sequence (P40763 whole entry): as the sequence (P40763 whole entry Y657F/C687A/S691A/Q692L) above, with F657Y, A687C, A691S, L692Q counted along it
T4 sequence (P40763 whole entry E638P): as the sequence (P40763 whole entry Y657F/C687A/S691A/Q692L) above, with E638P, F657Y, A687C, A691S, L692Q counted along it
Stat3-4M (human, UniProt P40763 1-770, limits assumed), sequence (P40763 other isoform, or with tags, fused parts or gaps limits assumed): as the sequence (P40763 other isoform, or with tags, fused parts or gaps E638P E638P limits assumed) above, with P644E, Y663F, C693A, S697A, Q698L counted along it
T2 sequence (P40763 whole entry K591L/E638L/Y640F/Y657F): as the sequence (P40763 whole entry Y657F/C687A/S691A/Q692L) above, with K591L, E638L, Y640F, A687C, A691S, L692Q counted along it
Stat3-6M (human, UniProt P40763 1-770, limits assumed), sequence (P40763 other isoform, or with tags, fused parts or gaps limits assumed): as the sequence (P40763 other isoform, or with tags, fused parts or gaps E638P E638P limits assumed) above, with P644L, Y646F, Y663F, C693A, S697A, Q698L counted along it
T8 sequence (P40763 other isoform, or with tags, fused parts or gaps limits assumed): as the sequence (P40763 other isoform, or with tags, fused parts or gaps E638P E638P limits assumed) above, with P644E counted along it
T7 sequence (P40763 whole entry E638L/Y640F/Y657F): as the sequence (P40763 whole entry Y657F/C687A/S691A/Q692L) above, with E638L, Y640F, A687C, A691S, L692Q counted along it
T6 sequence (P40763 whole entry E638L/Y640F/Y657F/C687A/S691A/Q692L): as the sequence (P40763 whole entry Y657F/C687A/S691A/Q692L) above, with E638L, Y640F counted along it
T1 sequence (P40763 whole entry R609L/E638L/Y640F/Y657F): as the sequence (P40763 whole entry Y657F/C687A/S691A/Q692L) above, with R609L, E638L, Y640F, A687C, A691S, L692Q counted along it
Stat3-3M (human, UniProt P40763 1-770, limits assumed), sequence (P40763 other isoform, or with tags, fused parts or gaps limits assumed): as the sequence (P40763 other isoform, or with tags, fused parts or gaps E638P E638P limits assumed) above, with P644L, Y646F, Y663F counted along it

Q: Which results are given for “VQNPV(pY)HNQPLN (VQNPV[pY]HNQPLN) [Y1086 PDP]”?
A: binding of Stat3-3M+R609L in peptide pull-down (Stat3-3M+R609L): elimination of binding; binding of Stat3-3M+K591L in peptide pull-down (Stat3-3M+K591L): elimination of binding; level of Stat3-4M bound in peptide affinity immunoblot (Stat3-4M [1]): equal to or greater than wild type Stat3; binding of Stat3-E638P in peptide affinity immunoblot (Stat3-E638P [2]): no binding

Q: For “LPVPEYINQSVP [unphosphorylated Y1068 dodecapeptide]”, which “Stat3 detected in peptide pull-down (Stat3 immunoblot)” value (wild type Stat3 [3]) is on record?
A: The value was “little to no Stat3 was detected”.

Q: Which results are given for CC[C@H](C)[C@H](NC(=O)[C@H](Cc1ccc(OP(=O)(O)O)cc1)NC(=O)[C@H](CCC(=O)O)NC(=O)[C@@H]1CCCN1C(=O)[C@@H](NC(=O)[C@@H]1CCCN1C(=O)[C@H](CC(C)C)NC(=O)CCCCCNC(=O)CCCC[C@@H]1SC[C@@H]2NC(=O)N[C@@H]21)C(C)C)C(=O)N[C@@H](CC(N)=O)C(=O)N[C@@H](CCC(N)=O)C(=O)N[C@@H](CO)C(=O)N[C@H](C(=O)N1CCC[C@H]1C(=O)O)C(C)C [Y1068 PDP, LPVPE(pY)INQSVP]?
A: Kd (Stat3-6M [4]): 249 ± 22 nM; Kd (Stat3-3M [5]): 177 nM; Kd (Stat3-4M [6]): 271 ± 48 nM; Kd (wild type Stat3 [7]): 223 nM

Q: Does {d‑Biotin‑LC}-PGPGHYLRCDST [Y744 non-phosphorylated dodecapeptide (G-CSFR)] bind [8]?
A: Result: no binding

Q: Does {d‑Biotin‑LC}-PGPGHYLRCDST [Y744 non-phosphorylated dodecapeptide (G-CSFR)] bind (Stat3-4M [9])?
A: Result: no binding

Q: Does {d‑Biotin‑LC}-PGPGHYLRCDST [Y744 non-phosphorylated dodecapeptide (G-CSFR)] bind (Stat3-6M [10])?
A: Result: no binding

Q: Does {d‑Biotin‑LC}-PGPGHYLRCDST [Y744 non-phosphorylated dodecapeptide (G-CSFR)] bind (Stat3-3M [11])?
A: Result: no binding

Q: Does {d‑Biotin‑LC}-PGPGHYLRCDST [Y744 non-phosphorylated dodecapeptide (G-CSFR)] bind (Stat3-E638P [12])?
A: Result: no binding
